This note sets out measurements from publication PMC7060085 (ACS applied materials & interfaces, 2019).

This data set deals with the molecule itself. The data set is described as follows: SEC.

B1: Physalis mottle virus (PhMV) virus-like particle, native (unmodified recombinant coat protein) (natural protein)
chain: MDSSEVVKVKQASIPAPGSILSQPNTEQSPAIVLPFQFEATTFGTAETAAQVSLQTADPITKLTAPYRHAQIVECKAILTPTDLAVSNPLTVYLAWVPANSPATPTQILRVYGGQSFVLGGAISAAKTIEVPLNLDSVNRMLKDSVTYTDTPKLLAYSRAPTNPSKIPTASIQISGRIRLSKPMLIAN
B1: the binding result was “binds”.
